The values that follow come from the DeepSol protein solubility set.

The data set can be described thus: soluble on expression in E. coli; label from the status in PepcDB or PDB records.
With “MVVGWHRPTRLHIDTQAITENVQKECQRLPEGTALFAVVKANGYGHGAVESAKAAKKGGATGFCVALLDEAIELREAGVQDPILILSVVDLAYVPLLIQYDLSVTVATQEWLEAALQQLTPESNTPLRVHLKVDTGMGRIGFLTPEETKQAVRFVQSHKEFLWEGIFTHFSTADEIDTSYFEKQAGRFKAVLAVLEELPRYVHVSNSATALWHPDVPGNMIRYGVAMYGLNPSGNKLAPSYALKPALRLTSELIHVKRLAAGEGIGYGETYVTEAEEWIGTVPIGYADGWLRHLQGFTVLVNGKRCEIVGRVCMDQCMIRLAEEVPVGPVVTLVGKDGNEENTLQMVAEKLETIHYEVACTFSQRIPREYN”, the “soluble on expression in E. coli” value is “soluble”. Next, “MSLTLPDFRLIRLLPLASLVLTACTLPGHKGPGKSPDSPQWRQHQQEVRHLNQYQTRGAFAYISDDQKVYARFFWQQTGQDRYRLLLTNPLGSTELELNAQPGNVQLVDNKGQRYTADDAEEMIGKLTGMPIPLNSLRQWILGLPGDATDYKLDDQYRLSEVNYRQDGKNWKVVYGGYDSKTQPAMPANMELSDGSQRIKLKMDNWIVKEGGSHHHHHH”: “soluble”.

For the sequence “MKAVVQRVTRASVTVGGEQISAIGRGICVLLGISLEDTQKELEHMVRKILNLRVFEDESGKHWSKSVMDKQYEILCVSQFTLQCVLKGNKPDFHLAMPTEQAEGFYNSFLEQLRKTYRPELIKDGKFGAYMQVHIQNDGPVTIELESPAPGTATSDPKQLSKLEKQQQRKEKTRAKGPSESSKERNTPRKEDRSASSGAEGDVSSEREP”, the “soluble on expression in E. coli” value was “soluble”. For “MSDIEVFELDDNFDPLEDIGLVDEEDIEHHDYQMPIPDAELSVVPEPVQLTPREKMDKLIAGIPGHKQRIVEVIRICEEPLTASEIEERLNDTYPQSASVYDAARIADLLVEAEGLVRLNAEEGADEETVAAPKTDTEHPEADVDAVVTPHAGVDETGDYLEVQPPEPSRYVATDEGLAFVAAMTDMAPVMELLEKEPRYLPIYERILRMTSNEEGCGKAELNKAIDSDELCQEPRRYTEYFLFRLQEVAAVRWNRVWYATDLGTSALNSNIFTK”, the “soluble on expression in E. coli” value is reported as “not soluble”. In the case of “SNKGGGSGGGSGGGSGPTAAAAAAALQKQKALLQRVETDITSVVDNFTQIVNVSRVSDPPVKNSQETYMMEMRASRMATQVLLKDFLMSLWSVVNLLPHQWWQVQAADSLLKLVSELKQTAIFSGFASLNDHVEQRIEEFDQEAEKTNRLLARIADDASANLKELESHYYSSAQRLTLDI”, the “soluble on expression in E. coli” value was “soluble”. Consider “MEWPRFGRVVLKPFSAGLSEAEWKGLYETFRDPEVAEWNGSSPLRSPFWLFKRFVLAEARRKDRVAFVILDEKGEYLGTLELYDLTPEEATLGILIGRKDRWGQGYGTEAVRAALDYAFRVLGLRRVKLRTFAHNLRARRAFQKAGFREVGVVPGPRGREDVHMEVRREDLGPEA”, for which the “soluble on expression in E. coli” value is “soluble”.

Take “MAHHHHHHMATCTLSVARFGRPSTFAHRRVRWLPPYDGNSTCLDWWLPTDAEAADTAADGGAAAIRVRALAVILPGLTGSSKEFYVRRMARQLLRAHMATCVLTSRGVADTHLERPQIFSALFAKDLRHIMQACMTREKVQECLLRRISPLQSSDHHKGAVPIIGVAFSLGGRILTNYVSEQGEAEAPSGFDAVYTITSPHNVSDGAAALRMLLSKLLYGSTLYKRLRAYYERHKNVLQNLPDIDKKLLMDGDSPLVKRLRTVQDFGEFITGPHVGFPGAEAYYVAASSFRRLHHSRMPQVCVVVANDPIYGPPQPAPRWLHLIDMHCGGLVYVEMPVGGHLGFLGCPWSEWTQAPNEMEHLVLRSLIHFIKSADTQAAEAKTNE”: the “soluble on expression in E. coli” value was “soluble”. Next, “MNSKSRITAIGTHVPNQILSNNDLEKMIDTNDEWIVQRTGMKERRIASEDEYSSNLAIKAVENLCTTYKKNLEDVDCIIVATTTADYVFPSVACQIQQYFNIPHTMAFDLNATCAGFTYGLHVGNSLITSGSHKKVLVVATETLSKVTDYTDRTTCILFGDGAGAILLERDENKPSFIAYHMGTNGHGGIHLYRTNLSTTMNDTPLQTNEKIVQNGREVYKWATRTVPVGIKELLHTANMKMDDIDWFIPHSANLRMIESICEKSQIPIHKTLTSVEYMGNTSSVSIPLALDLARKKGKLNNGDTLLLYGFGGGLTHLGLIVEWDLS”: “not soluble”. Take “MIVDMRLRPPIPGFARSTLYQAGPKTSHPDFPVEPSVGQCSLPLLISEMDAAGVAVGVVPGRYSMEPFGIVSNDELATLFADHPGRFVGFMGLDLGWPMQRMLDEIDARVGTPGFRGVALEPTISADASFCGMNDKRLYPIYEACVKHGVPVSVTLSAVLQAFTKRPYEHSNPVQAYQVAIDFPGLDIVIAHAAYPWVMEMIGVCLTCPNVWLSPDLYLTNVFPGAQEYAKAAATYLPRRTLFGTGYPAKPFKPMIDAYAAWGWPQDVVAAILGGNAARLLRLADQLEHHHHHH”: the “soluble on expression in E. coli” value is “not soluble”. Next, “MICTLLVPVLGSFELVGQSIKDALAEYTLTDIMNNNQFAGIEFGEAEDGFPAFRFLQTADVKSPYRMLLPEKLYEFAILITFRQSSLKGGYLFSVVNPLDTVVQLGVHLSPVVKNSYNVSLVYTQADQNIGRKLASFGVAHVPDKWNSIALQVLSDKVSFYYDCELRNTTLVTREPIELVFDSASTLYIGQAGSIIGGKFEVSSGGGQFDYAFDLQSIVGELEHHHHHH”: “not soluble”; “MGSDKIHHHHHHMFAGAWKNYRNILCVRPDNMGDVLMSQPAMRALKESVPGRKITLLTSTAGACIAPFIPEVDETIPFDVPWVKTTETNGAQRLLALAGELLALQLDAAVIFTVYSQNPLPAGMLCYLAGIKAVLGYCRENPYQLINQWVPDREPLDYVVHEVERQLRLVEMAGAKTSDTRLLLKIPEETRKEATDRVWEILNVAGIRAGMGWLVLHAGVSEEKRLYPARDYITACQSLIRQGYKILLTGSGSERDYVDQIARQLSDAAINVAGELSIAELIVLVEAAPVLISNNTGPVHIATAVGTPVVVLYAMTNPQHTPWQVPSKVLYFEVLPELRTKNQLLQSFPGSSTPRASPEAIVAAVGELVSPRRKHGSFIPSPLRNPVPTCNSLPDTALAACFTPHNEYGMCPPIRYGEDV”: “not soluble”; “RSFLPPFNEGSFTINVSTLPGISLEESDRMGRMAEEILLSVPEVQTVGRKTGRAELDEHALGVNVSEIEVPFVLKDRSKDEVLADIREKLKVLPGVNIEIGQPISHRIDAMLSGTRANIAIKLFGPDLNRLFAIGNQIKTSVHDVKGVADLNVEQQVERPQLKIVPKREMLAKYGLTPASFAEIVNVMLAGEVVSQVYEGNRSFDLSLKVNDESRESADRIRDLIIDAGGRKIPFAYVADIVSASGPNTINRENVSRKIVVSANVAGRDLRSVVNDIQERIDADITLPEGYHIEYGGQFESEQAASRT”: “not soluble”.

For the sequence “MLSIKHLTKIYSGNKKAVDDISLDIQSGEFIAFIGTSGSGKTTALRMINRMIEATEGQIEIDGKDVRSMNPVELRRNIGYVIQQIGLMPHMTIKENIVLVPKLLKWTKEEKDKRAKELIKLVDLPESFLERYPAELSGGQQQRIGVVRALAAEQDIILMDEPFGALDPITRDTLQDLVKTLQRKLGKTFIFVTHDMDEAIKLADKICIMSEGKVVQFDTPDNILRHPANDFVRDFIGQNRLIQDRPNDKTVEGVMIKPITIQAEATLNDAVHIMRQKRVDTIFVVDSNNHLLGFLDIEDINQGIRGHKSLRDTMQQHIYTVQIDSKLQDSVRTILKRNVRNVPVVDDQQRLVGLITRANVVDIVYDTIWGDSEDTVQTEHVGEDTASSKVHEQHTTNVKVRDIGDDKS”, the “soluble on expression in E. coli” value is reported as “not soluble”. Next, “GSPEFPPTIQEIKQKIDSYNSREKHCLGMKLSEDGTYTGFIKVHLKLRRPVTVPAGIRPQSIYDAIKEVNPAATTDKRTSFYLPLDAIKQMHISSTTTVSEVIQGLLDKFMVVDNPQKFALFKRIHKDGQVLFQKLSIADYPLYLRLLAGPDTDVLSFVLKEN”: “soluble”; “MAHHHHHHMIGSFRIIRLPRTASSLRSLNGGQRSPHDDVVCGRQPQGLEGGRKGESVDGGIRPSFTRVGQLTDTYRTRRAGWLCQRDDRWTERRPFQPAGIFLEGGEEAGRVDLRLTDMQRIYDVGPISAENERFAASTLLYATDEVRSLLVEKEWIKLYCLHGVAAADDECNIAFVDLTEKLEDVKRVLVAWKEKDA”: “not soluble”.
